The source of these data is US12422438B2, “Means and methods for single molecule peptide sequencing” (VIB VZW, priority 2017, dated 2025).

Substrate in series [1]: CC(C)C[C@H](N)C(=O)Nc1ccc([N+](=O)[O-])cc1
Briefly: purified protein, by the assay type. Format: biochemical. The following applies: other: 40° C., PBS, enzyme 2.0625 μM, substrate 0.0625-2 mM, Lineweaver-Burke plot. The method, then:
The kinetic parameters from T. aquaticus aminopeptidase T for cleaving different amino acid substrates was determined with a p-nitroanilide assay. Substrates consist of an N-terminal amino acid with a p-nitroanilide attached to its C-terminus. Upon amino acid cleavage, the free nitroanilide can be monitored by measuring the absorbance at 405 nm. T. aquaticus aminopeptidase T as depicted in SEQ ID No 8 was added in a concentration of 2.0625 μM (in PBS) to different concentrations of amino acid p-nitroanilide substrate (0.0625, 0.125, 0.25, 0.5, 1 and 2 mM in PBS). Subsequently p-nitroanilide release was continuously measured at 40° C. with a FLUOstar Omega microplate reader (MBG LabTech). From this, the initial velocity of the reaction at each substrate concentration was derived (v0). For each amino acid, a Lineweaver-Burke plot was generated from which the reaction Vmax and enzyme-substrate KM was determined. The turnover number, kcat, was calculated from the Vmax and the enzyme concentration (kcat=Vmax/[E]). The enzyme on-time value was then calculated by taking the reciprocal from the kcat value. The “on-time” values as shown in Table 1 are calculated as 1/kcat and as such is the overall time needed for an enzyme solution on the peptide until catalysis occurs.
The assays were performed at 40° C. below the enzyme's temperature optimum. Working more closely to the optimal temperature of 70° C. speeds up the reaction speed (kcat and enzyme on-time). […] The results as shown here not only validate the utility of the aminopeptidase as disclosed herein but also underpin and substantiate the methods and uses disclosed in current application.

Series [2] deals with T1, T. aquaticus aminopeptidase T (Thermus aquaticus, UniProt P23341).
T1 construct: 6xHis (C); made in house; host or cells: E. coli BL21(DE3), pET24b(+)
T1 sequence (P23341 with tags, fused parts or gaps): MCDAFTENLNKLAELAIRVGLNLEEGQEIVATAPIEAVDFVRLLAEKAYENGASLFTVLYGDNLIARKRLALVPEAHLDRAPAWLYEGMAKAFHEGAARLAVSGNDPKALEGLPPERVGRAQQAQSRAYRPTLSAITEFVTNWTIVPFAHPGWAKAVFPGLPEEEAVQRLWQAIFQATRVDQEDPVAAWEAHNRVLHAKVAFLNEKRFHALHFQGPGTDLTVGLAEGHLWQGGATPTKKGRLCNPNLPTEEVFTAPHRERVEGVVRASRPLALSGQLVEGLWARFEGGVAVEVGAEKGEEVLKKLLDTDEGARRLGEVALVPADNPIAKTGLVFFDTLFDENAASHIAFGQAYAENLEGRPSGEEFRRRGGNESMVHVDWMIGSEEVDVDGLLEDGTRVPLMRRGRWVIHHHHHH
Nature of the series: Aminopeptidase assay with different amino acid p-nitroanilide substrates at 40° C. and 80° C. The following applies: FIG. 11. Format: biochemical. The procedure: FIG. 11. Aminopeptidase assay with different amino acid p-nitroanilide substrates. Enzyme and substrate (1.5 mM) were incubated for 2 h at 40° C. or 80° C. in PBS, after which the released p-nitroanilide was quantified by measuring the absorbance at 405 nm.
As described herein and in line with the invention described in current application, the activity differs between different amino acids. At 80° C., the panel of amino acid substrates can be roughly divided in fast-cleaved (L, M, Y, R, F) and slow-cleaved (D, P) substrates. However, at 40° C. it seems like the panel is divided in fast-cleaved (Y, R) and slow-cleaved (D, P), and substrates that lie in between (L, M, F). […] Finally, TagAPT is not only active in the p-nitroanilide assay. […] The N-terminal amino acid from peptides with proline at the second position is not easily cleaved since peptide bonds adjacent to the amino acid proline are resistant to cleavage by most peptidases (Iyver et al. 2015 FEBS Open Bio. 2015 Apr. 2; 5:292-302). In contrast to what Is stated in Minagawa et al (1988 Agricultural and Biological Chemistry 52:1755-1763) we show here that T. aquaticus aminopeptidase T can cleave N-terminal amino acids even when proline is at the second position. This surprising finding greatly enhances the generic use of Tag-APT in the method and uses disclosed in current application and in single molecule peptide sequencing in general.

Series [3] can be described thus: Organic solvent tolerance of aminopeptidase T, activity with L-leucine-p-nitroanilide substrate. Format: biochemical. The procedure:
(§1) FIG. 12. Organic solvent tolerance of aminopeptidase T from T. aquaticus. A. The activity of aminopeptidase T was measured with L-leucine-p-nitroanilide substrate. Enzyme and substrate were incubated for 3 h at 40° C. in 50 mM TrisHCl (pH 8) containing different concentrations of the organic solvents acetonitrile (ACN), methanol (MeOH) and ethanol (EtOH). B. Circular dichroism analysis of aminopeptidase T secondary structure in 0% versus 50% MeOH (in 10 mM dipotassium phosphate buffer (K2HPO4)). C. Enzyme activity in varying concentrations of MeOH in buffer (50 mM TrisHCl, pH 8) versus deionized water (MilliQ).
(§2) It is well-known in the art that this can be achieved by solvents (such as methanol) or high temperatures. When these harsh conditions are needed, the aminopeptidases used should tolerate solvents and/or high temperatures. […] At higher organic solvent concentrations, activity can still be detected, albeit lower. […] Furthermore, the enzyme appears to be fully active in deionized (MS grade) water, which might be advantageous when the enzyme will be used with ultra-sensitive chip technology (e.g. electrical biosensor such as field effect transistors) (FIG. 12C).

Series [4] can be described thus: Circular dichroism analysis of aminopeptidase T secondary structure. Format: physicochemical. The following applies: 0% methanol versus 50% methanol, 10 mM K2HPO4. The procedure: as §1, §2
Series [5] can be described thus: Peptidase assay with L-leucine-p-nitroaniline of purified enzyme. Format: biochemical. The following applies: 70° C., PBS buffer. The procedure: A peptidase assay with L-leucine-p-nitroaniline (140 μl PBS buffer, 30 μl 24 mM L-leucine-p-nitroaniline in MeOH and 10 μl purified Tag-APT) confirmed the presence of the active (amino) peptidase, with thermophilic properties (activity at Taq optimum of 70° C.) (FIG. 8).

Series [6] can be described thus: L-leucine-p-nitroanilide activity check after labeling with maleimide-DyLight650. Format: biochemical. The following applies: N-terminal cysteine labeled with DyLight650. The source says: FIG. 13. Site-specific fluorescent labeling of aminopeptidase T. A. SDS-PAGE analysis of aminopeptidase T after labeling the N-terminal cysteine with an equimolar and a 1×, 10×, 100× and 1000× molar excess of maleimide-DyLight650. Aminopeptidase T was visualized with fluorescence (DyLight650 label) and coomassie (total protein). B. Aminopeptidase T activity check with L-leucine-p-nitroanilide after labeling with maleimide-DyLight650.
Recombinant Taq aminopeptidase containing an extra N-terminal cysteine, was incubated overnight with the fluorescent maleimide-DyLight650 probe in the presence of the reducing agent TCEP (10 mM). Maleimide-DyLight650 was added in equimolar concentration, and in 10×, 100× and 1000× excess molar concentration. After separating the aminopeptidase with SDS-PAGE, it was visualized using a Coomassie stain, as well as with fluorescence to evaluate protein labeling with DyLight650.

B1: T. aquaticus aminopeptidase T (Thermus aquaticus) (protein)
chain: MCDAFTENLNKLAELAIRVGLNLEEGQEIVATAPIEAVDFVRLLAEKAYENGASLFTVLYGDNLIARKRLALVPEAHLDRAPAWLYEGMAKAFHEGAARLAVSGNDPKALEGLPPERVGRAQQAQSRAYRPTLSAITEFVTNWTIVPFAHPGWAKAVFPGLPEEEAVQRLWQAIFQATRVDQEDPVAAWEAHNRVLHAKVAFLNEKRFHALHFQGPGTDLTVGLAEGHLWQGGATPTKKGRLCNPNLPTEEVFTAPHRERVEGVVRASRPLALSGQLVEGLWARFEGGVAVEVGAEKGEEVLKKLLDTDEGARRLGEVALVPADNPIAKTGLVFFDTLFDENAASHIAFGQAYAENLEGRPSGEEFRRRGGNESMVHVDWMIGSEEVDVDGLLEDGTRVPLMRRGRWVIHHHHHH
notes: 6xHis (C); made in house; host or cells: E. coli BL21(DE3), pET24b(+)
The term Km denotes the concentration of substrate that gives half-maximal velocity. The kcat is the maximal rate divided by the concentration of active sites. As a reminder, the kcat/Km is the turnover number divided by the Michaelis constant. With B1, in series [1], the Km came out at 92 µM, the kcat was 0.00256 s⁻¹ and the kcat/Km came to 27.9 M⁻¹ s⁻¹.

B2: aminopeptidase T from T. aquaticus: aminopeptidase T from Thermus aquaticus, Cys added at the N-terminus and 6×His at the C-terminus, SEQ ID No. 8 (protein)
chain: MCDAFTENLNKLAELAIRVGLNLEEGQEIVATAPIEAVDFVRLLAEKAYENGASLFTVLYGDNLIARKRLALVPEAHLDRAPAWLYEGMAKAFHEGAARLAVSGNDPKALEGLPPERVGRAQQAQSRAYRPTLSAITEFVTNWTIVPFAHPGWAKAVFPGLPEEEAVQRLWQAIFQATRVDQEDPVAAWEAHNRVLHAKVAFLNEKRFHALHFQGPGTDLTVGLAEGHLWQGGATPTKKGRLCNPNLPTEEVFTAPHRERVEGVVRASRPLALSGQLVEGLWARFEGGVAVEVGAEKGEEVLKKLLDTDEGARRLGEVALVPADNPIAKTGLVFFDTLFDENAASHIAFGQAYAENLEGRPSGEEFRRRGGNESMVHVDWMIGSEEVDVDGLLEDGTRVPLMRRGRWVIHHHHHH
modifications: labeled TaqAPT
In the case of B2, in series [2], the “cleavage of dipeptides with a proline at the second position” value was “cleaves dipeptides even with a proline at the second position”. Further, the “acetonitrile concentration up until which enzyme remains completely active” value in series [3] (acetonitrile, 3 h at 40° C., 50 mM TrisHCl (pH 8)) is reported as no more than 33%. Further, the “enzyme activity in deionized (MS grade) water” value in series [3] (deionized water (MilliQ) versus buffer) was “fully active”. Besides, the “ethanol concentration up until which enzyme remains completely active” value in series [3] (ethanol, 3 h at 40° C., 50 mM TrisHCl (pH 8)) was no more than 33%. Also, the “methanol concentration up until which enzyme remains completely active” value in series [3] (methanol, 3 h at 40° C., 50 mM TrisHCl (pH 8)) is on record as no more than 50%. For the same molecule, the “structural differences by circular dichroism (CD)” value in series [4] is given as “no structural differences were observed”. The “peptidase activity with L-leucine-p-nitroaniline” value in series [5] is “active”. Further, the “function after labeling with maleimide-DyLight650” value in series [6] is on record as “does not jeopardize its function”.
